Laboratory results published in patent US11827699 (dated 2023).

Legend:
Test in all cases: SPR
human FcγRIIIa V158 = human FcγRIIIa V158 (human, UniProt P08637)
human FcγRIIb = molecular target: T1, human FcγRIIb (human, UniProt P31994)
T1 chain: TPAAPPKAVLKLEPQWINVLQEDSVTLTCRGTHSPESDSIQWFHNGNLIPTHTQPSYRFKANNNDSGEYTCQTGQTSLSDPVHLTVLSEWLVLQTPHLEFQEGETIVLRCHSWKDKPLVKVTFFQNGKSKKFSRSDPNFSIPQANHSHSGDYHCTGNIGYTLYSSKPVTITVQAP

human FcγRIIa H131 = molecular target: T2, human FcγRIIa H131 (human, UniProt P12318)
T2 chain: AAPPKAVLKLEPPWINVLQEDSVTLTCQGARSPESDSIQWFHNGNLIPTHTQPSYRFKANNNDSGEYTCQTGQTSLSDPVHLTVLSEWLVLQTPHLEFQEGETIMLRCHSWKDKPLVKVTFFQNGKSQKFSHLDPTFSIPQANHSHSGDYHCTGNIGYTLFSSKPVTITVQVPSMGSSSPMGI

human FcγRIa = molecular target: T3, human FcγRIa (human, UniProt P12314)
T3 chain: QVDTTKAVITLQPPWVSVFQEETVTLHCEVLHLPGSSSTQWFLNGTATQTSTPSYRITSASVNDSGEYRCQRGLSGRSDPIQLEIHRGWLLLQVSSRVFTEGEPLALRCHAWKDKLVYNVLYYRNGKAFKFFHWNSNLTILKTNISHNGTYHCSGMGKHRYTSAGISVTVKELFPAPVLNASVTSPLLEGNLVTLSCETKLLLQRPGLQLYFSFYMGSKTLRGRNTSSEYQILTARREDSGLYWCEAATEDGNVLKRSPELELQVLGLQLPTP

Sequence of human FcγRIIIa V158 (P08637 17-208 F176V): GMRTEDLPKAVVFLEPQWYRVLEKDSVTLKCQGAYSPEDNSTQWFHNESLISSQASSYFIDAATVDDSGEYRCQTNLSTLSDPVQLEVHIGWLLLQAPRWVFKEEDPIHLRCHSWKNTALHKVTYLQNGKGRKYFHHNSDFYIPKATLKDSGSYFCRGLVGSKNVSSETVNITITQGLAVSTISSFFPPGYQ

| Binder | Kd (human FcγRIIIa V158) | Kd (human FcγRIIb) | Kd (human FcγRIIa H131) | Kd (human FcγRIa) |
| --- | --- | --- | --- | --- |
| IL6R-BP493 (antibody) chain 1: QVQLQESGPGLVKPSETLSLTCAVSGHSISHDHAWSWVRQPPGEGLEWIGFISYSGITNYNPSLQGRVTISRDNSKNTLYLQMNSLRAEDTAVYYCARSLARTTAMDYWGEGTLVTVSSASTKGPSVFPLAPSSKSTSGGTAALGCLVKDYFPEPVTVSWNSGALTSGVHTFPAVLQSSGLYSLSSVVTVPSSSLGTQTYICNVNHKPSNTKVDKKVEPKSCDKTHTCPPCPAPELLGGDSVFLFPPKPKDTLMISRTPEVTCVVIDVAEEDGEVKFNWYVDGVEVHNAKTKPREEQDNSTYRVVSVLTVLHQDWLNGKEYKCKVSNKALPAPIEKTISKAKGQPREPQVYTLPPSRDELTKNQVSLTCLVKGFYPSDIAVEWESNGQPENNYKTTPPVLDSDGSFFLYSKLTVDKSRWQQGNVFSCSVMHEALHNHYTQESLSLSP chain 2: not shown | 35 µM | 21 nM | 19 µM | 0.82 nM |
| IL6R-BP426 (antibody) chain 1: QVQLQESGPGLVKPSETLSLTCAVSGHSISHDHAWSWVRQPPGEGLEWIGFISYSGITNYNPSLQGRVTISRDNSKNTLYLQMNSLRAEDTAVYYCARSLARTTAMDYWGEGTLVTVSSASTKGPSVFPLAPSSKSTSGGTAALGCLVKDYFPEPVTVSWNSGALTSGVHTFPAVLQSSGLYSLSSVVTVPSSSLGTQTYICNVNHKPSNTKVDKKVEPKSCDKTHTCPPCPAPDLLGDDSVFLFPPKPKDTLMISRTPEVTCVVVDVAEDDGEVKFNWYVDGVEVHNAKTKPREEQYNSTYRVVSVLTVLHQDWLNGKEYKCKVSNKALPRPIEKTISKAKGQPREPQVYTLPPSRDELTKNQVSLTCLVKGFYPSDIAVEWESNGQPENNYKTTPPVLDSDGSFFLYSKLTVDKSRWQQGNVFSCSVMHEALHNHYTQESLSLSP chain 2: not shown |  |  | 19 µM | 1 nM |
| IL6R-BP495 (antibody) chain 1: QVQLQESGPGLVKPSETLSLTCAVSGHSISHDHAWSWVRQPPGEGLEWIGFISYSGITNYNPSLQGRVTISRDNSKNTLYLQMNSLRAEDTAVYYCARSLARTTAMDYWGEGTLVTVSSASTKGPSVFPLAPSSKSTSGGTAALGCLVKDYFPEPVTVSWNSGALTSGVHTFPAVLQSSGLYSLSSVVTVPSSSLGTQTYICNVNHKPSNTKVDKKVEPKSCDKTHTCPPCPAPELLGDDSVFLFPPKPKDTLMISRTPEVTCVVVDVGEEDGEVKFNWYVDGVEVHNAKTKPREEQDNSTYRVVSVLTVLHQDWLNGKEYKCKVSNKALPRPIEKTISKAKGQPREPQVYTLPPSRDELTKNQVSLTCLVKGFYPSDIAVEWESNGQPENNYKTTPPVLDSDGSFFLYSKLTVDKSRWQQGNVFSCSVMHEALHNHYTQESLSLSP chain 2: not shown | 33 µM | 9.7 nM | 12 µM | 8.3 nM |
| IL6R-BP435 (antibody) chain 1: QVQLQESGPGLVKPSETLSLTCAVSGHSISHDHAWSWVRQPPGEGLEWIGFISYSGITNYNPSLQGRVTISRDNSKNTLYLQMNSLRAEDTAVYYCARSLARTTAMDYWGEGTLVTVSSASTKGPSVFPLAPSSKSTSGGTAALGCLVKDYFPEPVTVSWNSGALTSGVHTFPAVLQSSGLYSLSSVVTVPSSSLGTQTYICNVNHKPSNTKVDKKVEPKSCDKTHTCPPCPAPDLLGDDSVFLFPPKPKDTLMISRTPEVTCVVVDVSDEDGEVKFNWYVDGVEVHNAKTKPREEQDNSTYRVVSVLTVLHQDWLNGKEYKCKVSNAALPRPTEKTISKAKGQPREPQVYTLPPSRDELTKNQVSLTCLVKGFYPSDIAVEWESNGQPENNYKTTPPVLDSDGSFFLYSKLTVDKSRWQQGNVFSCSVMHEALHNHYTQESLSLSP chain 2: not shown |  |  |  | 1 nM |
| IL6R-BP423 (antibody) chain 1: QVQLQESGPGLVKPSETLSLTCAVSGHSISHDHAWSWVRQPPGEGLEWIGFISYSGITNYNPSLQGRVTISRDNSKNTLYLQMNSLRAEDTAVYYCARSLARTTAMDYWGEGTLVTVSSASTKGPSVFPLAPSSKSTSGGTAALGCLVKDYFPEPVTVSWNSGALTSGVHTFPAVLQSSGLYSLSSVVTVPSSSLGTQTYICNVNHKPSNTKVDKKVEPKSCDKTHTCPPCPAPDLLGDDSVFLFPPKPKDTLMISRTPEVTCVVVDVAEEDGEVKFNWYVDGVEVHNAKTKPREEQYNSTYRVVSVLTVLHQDWLNGKEYKCKVSNKALPRPIEKTISKAKGQPREPQVYTLPPSRDELTKNQVSLTCLVKGFYPSDIAVEWESNGQPENNYKTTPPVLDSDGSFFLYSKLTVDKSRWQQGNVFSCSVMHEALHNHYTQESLSLSP chain 2: not shown |  |  | 2 µM |  |
| IL6R-BP266 (antibody) chain 1: QVQLQESGPGLVKPSETLSLTCAVSGHSISHDHAWSWVRQPPGEGLEWIGFISYSGITNYNPSLQGRVTISRDNSKNTLYLQMNSLRAEDTAVYYCARSLARTTAMDYWGEGTLVTVSSASTKGPSVFPLAPSSKSTSGGTAALGCLVKDYFPEPVTVSWNSGALTSGVHTFPAVLQSSGLYSLSSVVTVPSSSLGTQTYICNVNHKPSNTKVDKKVEPKSCDKTHTCPPCPAPDLLGDDSVFLFPPKPKDTLMISRTPEVTCVVVDVSEEDGEVKFNWYVDGVEVHNAKTKPREEQYNSTYRVVSVLTVLHQDWLNGKEYKCKVSNKALPRPIEKTISKAKGQPREPQVYTLPPSRDELTKNQVSLTCLVKGFYPSDIAVEWESNGQPENNYKTTPPVLDSDGSFFLYSKLTVDKSRWQQGNVFSCSVMHEALHNHYTQESLSLSP chain 2: not shown | 40 µM |  | 13 µM |  |
| IL6R-BP501 (antibody) chain 1: QVQLQESGPGLVKPSETLSLTCAVSGHSISHDHAWSWVRQPPGEGLEWIGFISYSGITNYNPSLQGRVTISRDNSKNTLYLQMNSLRAEDTAVYYCARSLARTTAMDYWGEGTLVTVSSASTKGPSVFPLAPSSKSTSGGTAALGCLVKDYFPEPVTVSWNSGALTSGVHTFPAVLQSSGLYSLSSVVTVPSSSLGTQTYICNVNHKPSNTKVDKKVEPKSCDKTHTCPPCPAPELLGDDSVFLFPPKPKDTLMISRTPEVTCVVIDVAEEDGEVKFNWYVDGVEVHNAKTKPREEQYNSTYRVVSVLTVLHQDWLNGKEYKCKVSNKALPAPIEKTISKAKGQPREPQVYTLPPSRDELTKNQVSLTCLVKGFYPSDIAVEWESNGQPENNYKTTPPVLDSDGSFFLYSKLTVDKSRWQQGNVFSCSVMHEALHNHYTQESLSLSP chain 2: not shown | 19 µM | 25 nM | 14 µM | 2.1 nM |
| IL6R-BP430 (antibody) chain 1: QVQLQESGPGLVKPSETLSLTCAVSGHSISHDHAWSWVRQPPGEGLEWIGFISYSGITNYNPSLQGRVTISRDNSKNTLYLQMNSLRAEDTAVYYCARSLARTTAMDYWGEGTLVTVSSASTKGPSVFPLAPSSKSTSGGTAALGCLVKDYFPEPVTVSWNSGALTSGVHTFPAVLQSSGLYSLSSVVTVPSSSLGTQTYICNVNHKPSNTKVDKKVEPKSCDKTHTCPPCPAPDLLGDDSVFLFPPKPKDTLMISRTPEVTCVVVDLGEEDGEVKFNWYVDGVEVHNAKTKPREEQYNSTYRVVSVLTVLHQDWLNGKEYKCKVSNKALPRPIEKTISKAKGQPREPQVYTLPPSRDELTKNQVSLTCLVKGFYPSDIAVEWESNGQPENNYKTTPPVLDSDGSFFLYSKLTVDKSRWQQGNVFSCSVMHEALHNHYTQESLSLSP chain 2: not shown |  |  | 38 µM |  |
| IL6R-BP436 (antibody) chain 1: QVQLQESGPGLVKPSETLSLTCAVSGHSISHDHAWSWVRQPPGEGLEWIGFISYSGITNYNPSLQGRVTISRDNSKNTLYLQMNSLRAEDTAVYYCARSLARTTAMDYWGEGTLVTVSSASTKGPSVFPLAPSSKSTSGGTAALGCLVKDYFPEPVTVSWNSGALTSGVHTFPAVLQSSGLYSLSSVVTVPSSSLGTQTYICNVNHKPSNTKVDKKVEPKSCDKTHTCPPCPAPDLLGDDSVFLFPPKPKDTLMISRTPEVTCVVVDVAEEDGEVKFNWYVDGVEVHNAKTKPREEQDNSTYRVVSVLTVLHQDWLNGKEYKCKVSNKALPRPTEKTISKAKGQPREPQVYTLPPSRDELTKNQVSLTCLVKGFYPSDIAVEWESNGQPENNYKTTPPVLDSDGSFFLYSKLTVDKSRWQQGNVFSCSVMHEALHNHYTQESLSLSP chain 2: not shown | 23 µM |  |  |  |
